Measured values as given in patent US20090202549A1.

Molecular target: mouse IL-12 (p40/p35 heterodimer) (mouse) (UniProt P43432)
Test: cell-based or functional assay

Chain of mouse IL-12 (p40/p35 heterodimer) (mouse) (P43432 23-335, chain 1 of 2): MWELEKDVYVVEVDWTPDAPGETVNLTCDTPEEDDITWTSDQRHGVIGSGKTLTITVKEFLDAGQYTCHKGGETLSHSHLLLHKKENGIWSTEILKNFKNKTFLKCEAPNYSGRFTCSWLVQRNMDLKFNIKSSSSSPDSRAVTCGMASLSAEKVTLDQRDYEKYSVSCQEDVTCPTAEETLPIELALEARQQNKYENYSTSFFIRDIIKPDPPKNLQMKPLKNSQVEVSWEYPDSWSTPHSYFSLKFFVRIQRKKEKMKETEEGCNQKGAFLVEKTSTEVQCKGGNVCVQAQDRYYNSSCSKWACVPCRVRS
Chain of mouse IL-12 (p40/p35 heterodimer) (mouse) (P43431 23-215, chain 2 of 2, further chain): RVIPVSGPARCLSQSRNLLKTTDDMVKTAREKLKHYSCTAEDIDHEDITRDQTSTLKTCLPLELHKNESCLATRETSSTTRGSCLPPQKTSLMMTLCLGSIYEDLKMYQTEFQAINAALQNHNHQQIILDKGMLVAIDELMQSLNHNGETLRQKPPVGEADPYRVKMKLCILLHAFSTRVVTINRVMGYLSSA

Substance “C17.8 (rat anti-mouse IL-12/IL-23p40, IgG2a) (antibody)” has an in vitro neutralization of IL-12 (times (against the anti-p35 mAb)) of 5.
